Values quoted from earlier work, collected in publication PMC3773255.

Target: E-cadherin EC1-2 (UniProt P12830)

Substance: E-cadherin EC1-2 (from UniProt P12830)
- Kd: 97 µM
